Where two headings read alike, the source gives them in different places.
How the values were obtained:
[1] = molecular target: SARS-CoV RBD-His (#40150-V08B2, Sino Biological) (SARS-CoV, UniProt P59594 306-527); test: ELISA, coated His-tagged antigen
SARS-CoV-2 RBD-hFc [2] = molecular target: T1, SARS-CoV-2 RBD-hFc (SARS-CoV-2, UniProt P0DTC2 319-541); test: cell-based or functional assay
[3] = molecular target: T2, SARS-CoV-2 spike protein on live SARS-CoV-2 virus (SARS-CoV-2, UniProt P0DTC2 14-1273); test: cell-based or functional assay
SARS-CoV-2 RBD-mFc [4] = molecular target: T3, SARS-CoV-2 RBD-mFc (SARS-CoV-2, UniProt P0DTC2 319-541); test: flow cytometry competition: RBD-mFc on HEK293E/ACE2 cells
T3 construct: range 319-541

SARS-CoV-2 RBD-hFc [5] = molecular target: T1, SARS-CoV-2 RBD-hFc; test: cell-based or functional assay; remark: listed apart in the source
SARS-CoV-2 스파이크 S1-mFc [6] = molecular target: T4, SARS-CoV-2 스파이크 S1-mFc (SARS-CoV-2, UniProt P0DTC2 16-685); test: competition ELISA: S1-mFc on coated ACE2-His
T4 construct: range 16-685

SARS-CoV-2 RBD-mFc [7] = molecular target: T3, SARS-CoV-2 RBD-mFc; test: flow cytometry competition: RBD-mFc on HEK293E/ACE2 cells; remark: listed apart in the source
SARS-CoV-2 RBD-mFc [8] = molecular target: T3, SARS-CoV-2 RBD-mFc; test: competition ELISA: RBD-mFc on coated ACE2-His
[9] = molecular target: T5, SARS-CoV 스파이크 [change] (#40150-V08B1, Sino Biological) (SARS-CoV, UniProt P59594 14-667); test: ELISA, coated S1-His
SARS-CoV-2 RBD-mFc [10] = molecular target: T3, SARS-CoV-2 RBD-mFc; test: competition ELISA: RBD-mFc on coated ACE2-His; remark: listed apart in the source
[11] = molecular target: T2, SARS-CoV-2 spike protein on live …; test: cell-based or functional assay; remark: listed apart in the source
SARS-CoV-2 스파이크 S1-mFc [12] = molecular target: T4, SARS-CoV-2 스파이크 S1-mFc; test: competition ELISA: S1-mFc on coated ACE2-His; remark: listed apart in the source
[13] = molecular target: T5, SARS-CoV 스파이크 [change] (#40150-V08B1, …); test: ELISA, coated S1-His, as Example 5.2
SARS-CoV-2 RBD-mFc [14] = molecular target: T3, SARS-CoV-2 RBD-mFc; test: Octet QKe BLI, 1:1 global fit
SARS-CoV-2 RBD-mFc [15] = molecular target: T3, SARS-CoV-2 RBD-mFc; test: Octet QKe BLI, 1:1 global fit; remark: listed apart in the source
SARS-CoV-2 RBD-mFc [16] = molecular target: T3, SARS-CoV-2 RBD-mFc
SARS-CoV-2 스파이크 S1-mFc [17] = molecular target: T4, SARS-CoV-2 스파이크 S1-mFc
SARS-CoV-2 RBD-mFc [18] = molecular target: T3, SARS-CoV-2 RBD-mFc; remark: listed apart in the source

Binder	binding result [1]	IC50, 세포내 유입(internalization) 억제, HEK293E/ACE2-GFP (SARS-CoV-2 RBD-hFc [2]) [nM]	IC50, live SARS-CoV-2 미세중화분석, Vero 세포, 72시간 [3] [nM]	IC50 (SARS-CoV-2 RBD-mFc [4]) [nM]	IC50, 세포내 유입(internalization) 억제, HEK293E/ACE2-GFP (SARS-CoV-2 RBD-hFc [5]) [nM]	IC50 (SARS-CoV-2 스파이크 S1-mFc [6]) [nM]	IC50 (SARS-CoV-2 RBD-mFc [7]) [nM]	IC50 (SARS-CoV-2 RBD-mFc [8]) [nM]	binding result [9]	IC50 (SARS-CoV-2 RBD-mFc [10]) [nM]	IC50, live SARS-CoV-2 미세중화분석, Vero 세포 [11] [nM]	IC50 (SARS-CoV-2 스파이크 S1-mFc [12]) [nM]	binding result [13]	Kd (SARS-CoV-2 RBD-mFc [14]) [nM]	koff (SARS-CoV-2 RBD-mFc [14]) [s⁻¹]	kon (SARS-CoV-2 RBD-mFc [14]) [M⁻¹ s⁻¹]	Kd (SARS-CoV-2 RBD-mFc [15]) [nM]	koff (SARS-CoV-2 RBD-mFc [15]) [s⁻¹]	kon (SARS-CoV-2 RBD-mFc [15]) [M⁻¹ s⁻¹]	also measured
SA3838 (antibody, V domains shown) VH: QVQLVESGAEVKKPGASVRVSCKISGYIFTELSIHWVRQAPGKGLEWMGGFDPEEGKTIYAQKFQGRVTMTEDTSTDTAYMELSSLRSEDTAVYYCAKIGHLGDFWYWGQGTLITVSS VL: QSALTQPASVSGSPGQSITISCTGTTSDIGSYDYVSWYQQHPGKAPKLIIYGVTRRPSGVSNRFSGSKSGNTASLTISRLLTEDEAEYYCATYTSSATYVFGTGTKVTVL	no binding	36.1	13.5	3.38	42.8	2.25	2.99	1.62	no binding (tested: 50 nM)	2.2	9.4	1.2								
SA4118 (antibody, V domains shown) VH: QVQLVESGAEVKKPGASVRVSCKISGYIFTELSIHWVRQAPGKGLEWMGGFDPEEGKTIYAQKFQGRVTMTEDTSTDTAYMELSSLRSEDTAVYYCAKIGHLGDFWYWGQGTLITVSS VL: QSALTQPASVSGSPGQSITISCTGTTSDIGSYDYVSWYQQHPGKAPKLIIYGVTRRPSGVSNRFSGSKSGNTASLTISGLQAEDEANYYCSSCTRSSTYVFGTGTKVTVL	no binding		8.29		31.4	2.28	2.71	0.709					no binding	0.0296	2.05e-05	695000				
SA3779 (antibody, V domains shown) VH: QVQLVESGGGVVQPGRSLRLSCAASGFTFSSYAMHWVRQAPGKGLEWVAVISYDGSNKYYADSAKGRFTISRDNSKNTLYLQMNSLRAEDTAVYYCARRGHYYDSSGYLYWGHGTLITVSS VL: DIQMTQSPSSLSASVGDRVTITCRASQRIATYLHWYQQKPGRAPKLLIYAASSLQTGVPSRFSGSGSGTDFTLTINSLQPEDFATYYCQQSYAIPYTFGQGTKLEIK	no binding	18.9	45.6	2.84	27.3	3.59	2.65	7.96	no binding (tested: 50 nM)	11.2	56.8	4.03					1.05	0.000223	213000	
SA3827 (antibody, V domains shown) VH: QVQLVESGGTLVQPGRSLRLSCAASGFTFSSYAMHWVRQAPGKGLEWVAVISYDGSNKYYADSVKGRFTISRDNSKNTLYLQMNSLRAEDTAVYYCARRGHYYDSSGFLYWGQGTLVTVSS VL: DIQMTQSPSSLSASVGDRVTITCRASQSISTYLSWYQQKPGKAPKLLIYAASNLQSGVPSRFSASGSGTDFTLTISSLQPEDFATYYCQQSYNTPRTFGQGTKVEIK	no binding	12.9	7.94	2.74	18.3	0.9	2.71	0.321	no binding (tested: 50 nM)	0.914	8.92	0.61					0.452	0.000173	383000	
SA4086 (antibody, V domains shown) VH: QVQLVESGGGVVQPGRSLRLSCAASGFTFSSYAMHWVRQAPGKGLEWVAVISYDGSNKYYADSAKGRFTISRDNSKNTLYLQMNSLRAEDTAVYYCARRGHYYDSSGYLYWGHGTLITVSS VL: DIQMTQSPSSLSASVGDRVTITCRASQSISTYLSWYQQKPGKAPKLLIYAASNLQSGVPSRFSASGSGTDFTLTISSLQPEDFATYYCQQSYNTPRTFGQGTKVEIK	no binding		12.4		27.2	1.28	2.47	1.24					no binding	0.106	4.99e-05	471000				
SA4114 (antibody, V domains shown) VH: QVQLVESGGTLVQPGRSLRLSCAASGFTFSSYAMHWVRQAPGKGLEWVAVISYDGSNKYYADSVKGRFTISRDNSKNTLYLQMNSLRAEDTAVYYCARRGHYYDSSGFLYWGQGTLVTVSS VL: DIQMTQSPSSLSASVGDRVTITCRAGQSIDNYLNWYQQKPGKAPKLLIYAASTLHSGVPSRFSGSGSGTDFTLTISSLQPDDFATYYCQQSYSIPRTFGQGTKLEIK	no binding		12.8		24.1	1.19	2.39	0.364					no binding	0.0899	3.89e-05	433000				
SA3755 (antibody, V domains shown) VH: QMQLVESGGGVVQPGGSLRLSCAASGFTFDDHTMHWVRQAPGKGLEWVSLISWDGGSTYYADSVKGRFTISRDNSKNSLYLQMNSLRAEDTAVYYCTRDASRRPGDGGYDFDVWGQGTQVTVSS VL: QAVVTQEPSLTVSPGGTVTLTCGSSTGTVTRGHWPYWFQQKPGQAPRTLIYDTDNKHSWTPARFSGSLLGGKAALTLSGAQPEDEADYYCLLSYSDSRVFGTGTKVTVL	no binding	40	5.12	3.8	35.8	4.67	3.09	5.71	no binding (tested: 50 nM)	7.74	8.74	4.06					1.06	0.000424	399000	IC50 (SARS-CoV-2 RBD-mFc [16]): 23.1 nM; IC50 (SARS-CoV-2 스파이크 S1-mFc [17]): 8.27 nM; IC50 (SARS-CoV-2 RBD-mFc [18]): 2.26 nM
SA4079 (antibody, V domains shown) VH: QMQLVESGGGVVQPGGSLRLSCAASGFTFDDHTMHWVRQAPGKGLEWVSLISWDGGSTYYADSVKGRFTISRDNSKNSLYLQMNSLRAEDTAVYYCTRDASRRPGDGGYDFDVWGQGTQVTVSS VL: QAVVTQEPSLTVSPGGTATLTCGSSTGTVTRGHWPYWFQQKPGQAPRTLIYDTDTKHSWTPARFSGSLLGGKAALTLSGAQPEDEADYYCLLSYSDSRVFGTGTKVTVL	no binding		2.74		40	2.71	2.35	3.62					no binding	0.154	5.73e-05	373000				
